Measured values published in the supplement of paper PMC10567573.
± gives the standard deviation.

Test: protein stability index of a GFP-peptide fusion (GPS, HEK-293T) (PSI 1-6); higher = more stable
Details: c terminus: a fixed tail appended
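Note: 24-mer peptide tiles fused after GFP, lentivirally expressed, FACS-sorted into six equal bins by GFP/DsRed ratio, decoded by Illumina sequencing, PSI is the read-weighted mean bin number.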

Row | Sequence | protein stability index (treatment: DMSO) | protein stability index (treatment: MLN4924 1 uM, 8 h)
1 | DNPANRSLVLPWSFPLEWAPQNLT [TOR1AIP2] | 2.87 ± 0.23 | 2.79 ± 0.17
2 | GFLLRYAVIKSNHSYCRMFLQRGA [ASB7] | 2.6 ± 0.37 | 2.34 ± 0.38
3 | VHSERKLLPLVTLCDGNPRRPSPV [SCNN1D] | 3.58 ± 0.23 | 3.56 ± 0.49
4 | IIQYRLPMKKNNNLYSWDDFMELG [ACSBG2] | 2.12 ± 0.32 | 1.98 ± 0.25
5 | NVLKSYIGLGHIYSGTFALIGAAA [CLCN6] | 3.63 ± 0.91 | 3.04 ± 0.32
6 | GPYDPNSVRISFAKGWGPCYSRQF [SMAD6] | 2.19 ± 0.17 | 2.25 ± 0.18
7 | YVHHQALLDVKNIAHQNKFGEDMP [HDAC6] | 2.83 ± 0.54 | 3.49 ± 0.57
8 | KLREKERKKEAKRKISSLSFTLEE [FAM50A] | 4.29 ± 0.3 | 4.53 ± 0.34
9 | KEVFASRISNPSDDNSCEDLEEER [PCMTD2] | 5.55 ± 0.33 | 5.41 ± 0.31
10 | ALRAQRASSNVFSNFEQTQIQEFK [MYL5] | 4.07 ± 0.27 | 3.93 ± 0.23
11 | GGWFCEGSFNGSEKETMQFLNDRL [KRT36] | 3.27 ± 0.23 | 3.17 ± 0.41
12 | KEEEEEDCSEEYLERQLQAEFIES [TAF7L] | 5.36 ± 0.36 | 5.56 ± 0.12
13 | LALHPEAPGLYNHLPWQYHAGQGG [CCDC3] | 3.2 ± 0.5 | 2.63 ± 0.28
14 | PRIEASKVLLCHGELRSKSGHKLY [NET1] | 2.64 ± 0.46 | 2.81 ± 0.34
15 | VHVSESSDDDEEEEENIGCEEKAK [ACBD3] | 5.55 ± 0.32 | 5.62 ± 0.12
16 | PNFVKDLEEDLYELFKKDPGFDRG [PI4K2A] | 3.79 ± 0.081 | 3.72 ± 0.32
17 | LGTPTSSTPRPSITPTKKIELDRT [C2CD2L] | 4.94 ± 0.18 | 4.88 ± 0.24
18 | MTEWKHQRITKQLEKWMQKNVEEN [GLT8D2] | 3.85 ± 0.21 | 3.97 ± 0.41
19 | VVMNLDSRLLIFPLYICCNFLYIS [GMCL1] | 2.59 ± 0.59 | 2.94 ± 0.36
20 | ALGNLVEGMDFHRFYFENLLAKNS [CAMK2B] | 2.19 ± 0.24 | 2.35 ± 0.079
21 | GRKRRQTSMTDFYHSKRRLIFSKR [CDKN1A] | 3.35 ± 0.51 | 4.07 ± 0.38
22 | SSALSQSGGGSTSAAGIEARSRAL [SPACA3] | 4.76 ± 0.41 | 4.82 ± 0.064
23 | DSASPVEDTSNDESSILGTDIDLQ [M1AP] | 5.62 ± 0.2 | 5.62 ± 0.21

Row | Sequence | protein stability index (treatment: DMSO) | protein stability index (treatment: MLN4924 1 uM, 8 h)
24 | MSGSCAVCVDRVLYLFGGHHSRGN [KLHDC2] | 2.35 ± 0.55 | 1.75 ± 0.36
25 | DLNGAQIKLREYEAALNSKDAALA [LMNB1] | 3.5 ± 0.18 | 3.71 ± 0.39
26 | KLKKGICEALEDSDGRQDSPAGEL [MATN2] | 5.3 ± 0.28 | 5.31 ± 0.15
27 | NRIGNSGVEEIKGHPFFEGVDWEH [STK38L] | 4.32 ± 0.26 | 4.45 ± 0.21
28 | DREGPSSSKLVTKKAPQPAKPRLA [HDAC6] | 5.09 ± 0.3 | 5.06 ± 0.35
29 | QQTHNIEKAHECTDCGKAFLKKSQ [ZNF649] | 3.93 ± 0.3 | 4.02 ± 0.17
30 | EGQHPAQLRSDVCTPGGTTIYGLH [PYCR3] | 3.8 ± 0.35 | 3.92 ± 0.39
31 | RHSKGLQILGQTLKASMRELGLLI [KCNA1] | 2.96 ± 0.5 | 2.89 ± 0.15
32 | LAFVGGLPLAYQQTSAFARQPRDE [TMEM175] | 3 ± 0.31 | 3.06 ± 0.15
33 | QKLGSGAWDNPAYSGPPSPHGTLR [PKD2L1] | 3.79 ± 0.1 | 3.95 ± 0.31
34 | EMVRFLLEAGADQEHKTDEMHTAL [ANKRD17] | 2.88 ± 0.38 | 3.05 ± 0.42
35 | LKLKNKLLQADREHLPVKPDTMEK [DENND6A] | 4.35 ± 0.34 | 4.33 ± 0.22
36 | GGRKGTAIELQGHNDRVQALSYAQ [WDFY2] | 4.28 ± 0.21 | 4.38 ± 0.19
37 | RTPLMKAARAGHVCTVQFLISKGA [ANKRD17] | 2.27 ± 0.37 | 2.46 ± 0.33
38 | GGGSSRISSVLAGGSCRAPSTYGG [KRT16] | 3.04 ± 0.59 | 3.46 ± 0.18
39 | LVKKYGTKQWTLIAKHLKGRLGKQ [MYBL2] | 2.43 ± 0.89 | 2.45 ± 0.53
40 | QEEEEDNRDSSMKLSFRARAYGFR [CHGA] | 4.58 ± 0.13 | 4.62 ± 0.28
41 | DYSPYYKTIEELRDKILTATIENN [KRT13] | 3.17 ± 0.15 | 3.11 ± 0.16
42 | ETDDPRRYQKYGYIGTHEYPHFSH [OAS1] | 2.88 ± 0.15 | 3 ± 0.19
43 | SGITIPKPPKPPDKPLMPYMRYSR [SMARCE1] | 2.68 ± 0.25 | 3.32 ± 0.23
44 | DRTSHRLHTANLGDSGFLVVRGGE [PPTC7] | 4.08 ± 0.21 | 4.11 ± 0.27
45 | PNVLCSMSGKSPVESSLNVKTKKN [FBXO34] | 4.84 ± 0.29 | 4.9 ± 0.1
46 | QGLRPRTVSSPIPYTPSPSSSRPI [CCDC6] | 4.64 ± 0.22 | 4.7 ± 0.16

Row | Sequence | protein stability index (treatment: DMSO) | protein stability index (treatment: MLN4924 1 uM, 8 h)
47 | NLLLTYLIVTSLLLLPGLNQHGII [ARL6IP1] | 3.32 ± 0.47 | 3.25 ± 0.13
48 | EELYKEIDGVATTRYSVAGLSPYS [PTPRD] | 3.14 ± 0.18 | 3.36 ± 0.22
49 | SKLEERFGPDSKSSALACTLPTLP [NCF4] | 4.04 ± 0.19 | 4.21 ± 0.17
50 | YHSQDELGGFSHWGRLTSYSGGGY [PKD2L1] | 2.66 ± 0.6 | 2.52 ± 0.34
51 | MERPMSQADLELDYNPPRVQLSDE [CBY2] | 5.36 ± 0.22 | 5.22 ± 0.21
52 | MDERLSLLRSPPPPSARHRAHPPQ [KCNA3] | 4.55 ± 0.23 | 4.44 ± 0.19
53 | AATKQEGMEGLLGTLVQLLGSDDI [CTNNB1] | 2.63 ± 0.23 | 2.71 ± 0.58
54 | PYSKTLVLQTSEGKALQQYPSERE [TRIM9] | 4.63 ± 0.088 | 4.66 ± 0.21
55 | ELVGSGYRMSLVKRRFATGMYLVS [FCHO1] | 2.46 ± 0.64 | 2.26 ± 0.43
56 | LCEKAKEILTKESNVQEVRCPVTV [PPP2CA] | 4.11 ± 0.32 | 4.44 ± 0.19
57 | KDQRNPPSLGRVLPDPREACGSSS [RBMY1A1] | 4.78 ± 0.17 | 5.18 ± 0.095
58 | MEKYEKLAKTGEGSYGVVFKCRNK [CDKL4] | 3.78 ± 0.19 | 3.67 ± 0.26
59 | YAYSNGIDYKTTTILLDGRRVRLE [RAB40C] | 2.68 ± 0.3 | 2.56 ± 0.34
60 | ALLNDHIYVVGGFDGTAHLSSVEA [KLHL12] | 2.68 ± 0.32 | 3 ± 0.38
61 | AAKARDTGILIFAIGVGQVDFNTL [MATN2] | 2.58 ± 1.1 | 3.16 ± 1
62 | ISKKFGDMSYSIRHSISMPAMRNS [TPD52L1] | 2.51 ± 0.41 | 2.65 ± 0.52
63 | EGLRRRRGREAGPPQPMVPLAVEN [PBXIP1] | 5 ± 0.49 | 4.98 ± 0.23
64 | QFLEEINKWTVQYNVSPLSWNVAV [PTPN9] | 2.79 ± 0.82 | 2.87 ± 0.49
65 | PRRKKLKSTSKYIYQTLFLNGENS [GMCL1] | 2.69 ± 0.17 | 2.79 ± 0.16
66 | SEDAVGGATLGQTTSEEAVGGATL [HDAC6] | 5.54 ± 0.15 | 5.18 ± 0.4
67 | SRVKGSAPEIDPSSDGSNFGWETK [KMT2E] | 4.83 ± 0.4 | 4.83 ± 0.15
68 | SNRGAYVKLGPALTPHIVQYQANK [PPEF2] | 2.9 ± 0.38 | 2.99 ± 0.41
69 | DYVDRGYYSVETVTLLVALKVRYR [PPP2CA] | 2.74 ± 0.46 | 2.47 ± 0.6

Row | Sequence | protein stability index (treatment: DMSO) | protein stability index (treatment: MLN4924 1 uM, 8 h)
70 | VRSQYPNQPTRFGKLLLRLPSLRT [NR2F2] | 2.42 ± 0.16 | 2.49 ± 0.23
71 | NKLALQYGCKVADIKKVNNFIREQ [LYSMD4] | 2.25 ± 0.22 | 2.38 ± 0.42
72 | EQCPVIDSQAPAGSLDLVPGGLTL [SPDEF] | 4.07 ± 0.23 | 4.24 ± 0.13
73 | QRLLGEDKFQWLAGLAPPSLFARA [ANKRD9] | 2.59 ± 0.12 | 2.66 ± 0.28
74 | AEGDSEGLSQGLVDREKGLSAEPG [CHGA] | 5.49 ± 0.23 | 5.49 ± 0.4
75 | RLSRRMASQHSYPLNRFSSVPLDP [CBY2] | 3.22 ± 0.27 | 3.45 ± 0.22
76 | MGWKKACDELELHQRFLREGRFWK [ZMYND11] | 2.52 ± 0.19 | 2.99 ± 0.18
77 | SLLKKPDGVKESTESSNTTIEDED [CAMK2D] | 5.52 ± 0.11 | 5.43 ± 0.19
78 | NDTDFRVYLLGNPVVWWLNLLSIA [POMT2] | 2.89 ± 0.48 | 3.11 ± 0.47
79 | PVDLNKILEDMRCQYEALVENNRR [KRT36] | 3.31 ± 0.3 | 3.23 ± 0.36
80 | LYKSLKTLSAELVPWLNLKKQDEN [CEP70] | 2.37 ± 0.49 | 2.03 ± 0.37
81 | FALGLGFGGVIAFSSYNKQDNNCH [SLC6A17] | 2.01 ± 0.4 | 2.44 ± 0.52
82 | LNELERLSNLVGKPSENHPLHNSG [MED27] | 4.06 ± 0.25 | 4.31 ± 0.24
83 | YPQDLPRPLRSREFPQFEPQRYPA [TRAF3IP2] | 3.93 ± 0.3 | 3.6 ± 0.41
84 | TYKLKCKALQEENRDLRKASVTIQ [CCDC6] | 3.64 ± 0.3 | 3.7 ± 0.21
85 | STHLTVHRRIHTGEKPYECQDCGR [ZNF8] | 3.9 ± 0.32 | 4.1 ± 0.52
86 | VKALEDFEDLCDRVFSDEDSELDN [FAM9B] | 5.34 ± 0.26 | 5.28 ± 0.27
87 | GTTLRGRSDADLVVFLSPLTTFQD [OAS1] | 2.18 ± 0.4 | 2.28 ± 0.31
88 | PVHTTILNPHIHLMGDESACIAYI [CAMK2A] | 2.42 ± 0.17 | 2.42 ± 0.082
89 | VKFISNPPSMVAAGSVVAAVQGLN [CCND1] | 2.43 ± 0.62 | 2.42 ± 0.24
